Results reported in the MegaScale stability set (Tsuboyama et al. 2023).

B1: 6NMW (parent)
chain: QGDIVVALYPYDGIHPDDLSFKKGEKMKVLEEHGEWWKAKSLLTKKEGFIPSNYVAKLN

Variants of: B1
Experiment: folding stability dG (cDNA display proteolysis); higher = more stable
Details: PBS, room temperature

Folding stability dG [kcal/mol] of substitutions, site by site:
E47: Q 3.21 | V 4.3 | K 2.55 | R 2.28 | C 3.83 | M 3.2 | N 1.81 | F 2.36 | Y 2.25 | L 2.59 | I 4.37 | W 2.14 | D 1.89 | A 2.77 | G 1.26 | H 2.22 | S 3.47
P51: T -0.429 | W 1.33 | K 1.62 | S 1.19 | H 1.83 | R 1.7 | E 0.647 | I 0.759 | Y 1.26 | C 2.34 | M 1.59 | F 1.25 | D 1.08 | L 1.54 | N 2.28 | V -0.225 | G 0.115 | A 0.249 | Q 1.09
K40: L 3.84 | R 4.32 | Y 3.79 | N 1.04 | Q 3.88 | S 2.8 | V 4.24 | M 4.1 | T 2.76 | W 3.24
K46: Y 2.02 | S 2.48 | T 1.95 | R 3.66 | W 1.73 | F 2.48 | V 2.21 | L 3.56 | G 2.14 | H 2.64 | E 2.94 | M 3.47 | A 3.05 | I 2.34 | D 2.47 | C 3.37 | N 3.02
K45: T 3.1 | S 3.89 | R 3.65 | L 4.49 | V 1.61 | F 4.45 | N 4.22 | A 3.94 | Q 4.25 | W 4.01 | Y 3.97 | D 4.09 | M 4.29 | H 4.6 | I 1.8 | E 4.09 | P 0.596
L42: R 0.165 | D 0.832 | P -0.897 | E 1.82 | V 1.88 | Y 2.14 | I 2.51 | A 0.615 | K 0.463 | G -0.156 | H 1.02 | T 1.47 | C 4.16 | M 3.09 | F 2.83 | N 0.819 | S 0.699 | W 1.06 | Q 1.32
A56: L 3.61 | Q 3.85 | S 3.31 | K 4.04 | F 3.43 | Y 3.8 | R 4.18 | P 0.083 | N 2.24 | W 2.92 | G 2.51 | I 4.4 | C 4.6 | E 3.61 | T 3.8 | H 3.07 | D 2.03 | V 4.56 | M 4.36
L43: D 3.14 | Y 3.26 | V 3.56 | M 3.25 | E 3.22 | C 3.7 | K 3.17 | Q 2.88 | P 0.475 | A 3.2 | R 3.66 | F 3.03 | S 3.38 | W 4.56 | I 3.26 | G 2.02 | H 3.1 | N 2.4
K57: H 3.25 | V 3.39 | S 2.94 | I 3.23 | E 2.02 | Y 4.22 | F 3.96 | A 3.02 | D 1.86 | C 3 | R 4.37 | M 2.85 | W 3.87 | N 2.44 | G 2.27 | Q 2.68 | P 3.63 | T 2.85 | L 3.61
L58: Q 2.38 | C 3.88 | P 2.38 | E 2.77 | T 2.86 | Y 3.52 | M 3.45 | H 2.43 | R 1.73 | G 1.84 | F 3.26 | I 3.89 | D 2.77 | A 2.62 | N 1.86 | S 2.55 | V 3.89 | W 3.73 | K 1.65
N59: L 3.64 | M 3.64 | H 3.98 | Q 3.56 | P 3.88 | R 3.22 | G 4.04 | E 3.86 | A 3.8 | F 3.48 | C 4.64 | K 3.53 | I 4 | S 4.06 | D 3.82
G48: K 0.081 | Y 0.585 | C 0.255 | H -0.819 | S -0.544 | W -0.877 | N -0.967 | A -0.512 | F 0.034
N53: Q 3.5 | T 3.74 | Y 3.12 | H 3.87 | R 4.09 | M 3.07 | K 3.93 | W 4.69 | G 3.47 | C 4.41 | A 4.07 | D 3.14 | L 3 | E 3.19 | S 4.5 | F 3.06 | P 1.68 | V 2.88 | I 2.98
S41: C 1.48 | K 1.64 | Y 0.369 | Q 0.463 | L 1.15 | D 0.362 | W 0.288 | I 1.28 | H 2.95 | G -0.006 | E -0.037 | F -0.464 | N 1.9 | T 0.669 | R 0.201 | M 1.38 | A 1.22 | V 1.06
I50: C 0.571 | M 0.656 | V 2.59 | L 1.58 | P -0.401 | A 0.132 | D -0.59 | W -0.594 | F 2.01 | Y -0.106
F49: N 3.4 | G 0.912 | V 2.3 | C 3.83 | M 4.22 | W 4.88 | H 1.88 | A 1.48 | I 2.63 | P -0.719 | R 3.83 | K 2.81 | Q 2.25 | S 1.94 | D 1.19 | E 0.945 | L 3.4 | T 2.25
T44: G 0.839 | Q 1.26 | D 1.14 | I -0.332 | N 2.06 | M 0.443 | E 0.228 | V 0.057 | K 0.416 | W 0.672 | H 0.98 | L 0.417 | S 3.08 | A 0.515 | C 0.909 | R 0.922 | F 0.599 | Y 0.599
Y54: L 3.67 | V 1.29 | R 2.74 | T 1.16 | N 1.04 | E 0.003 | I 2.17 | C 2.85 | S 1.81 | G 0.76 | P -0.857 | A 2.58 | W 2.19 | M 3.17 | H 2.9 | F 3.51 | D -0.435 | Q 1.44 | K 2.44
S52: T 2.23 | D 1.16 | E 1.64 | K 4.84 | W 3.1 | V 3.02 | C 3.84 | F 2.85 | G 2.51 | M 3.52 | R 4.29 | L 2 | Q 3.31 | I 2.91 | A 4.05 | H 2.96 | N 2.58 | Y 3.08 | P 3.65
V55: K 0.066 | W 0.199 | P -0.707 | C 2.7 | I 2.12 | L 1.18 | H -0.417 | Y 0.703 | M 1.6 | T 1.68 | E -0.519 | G 0.112 | F 4.1 | S -0.255 | A 1.47
